Experimental data: PMC11897156, “Ex.50.T aptamer impairs tumor–stroma cross-talk in breast cancer by targeting gremlin-1”

Columns and labels:
Gremlin-1 (recombinant) [1] = target: T1, Gremlin-1 (recombinant) (UniProt O60565 25-184); test: SPR; GREM1 immobilized, aptamer 0.062-1 uM, 25 C; kon 3.39e4 M-1 s-1, koff 1.58e-3 s-1; Aptamer refolded 85 C 5 min, 4 C 2 min, 37 C 10 min; ELONA: PBS, 3% BSA block, 1 h; pull-down: 10 mM PBS with Ca2+ and Mg2+, room temperature; SPR at 25 C (buffer not in material); cell binding: serum-free medium, 37 C, 30 min; details: protein: commercial; chain copies: 2; label: biotin (ELONA, pull-down); none stated for SPR; hairpin; predicted stem of 11 bp, 2 internal loops, 1 terminal loop
T1 sequence: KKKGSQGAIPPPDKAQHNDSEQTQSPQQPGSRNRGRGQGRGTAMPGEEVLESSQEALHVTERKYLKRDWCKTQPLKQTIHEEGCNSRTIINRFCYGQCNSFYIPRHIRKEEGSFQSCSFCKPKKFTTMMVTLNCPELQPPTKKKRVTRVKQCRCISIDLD

Gremlin-1 (recombinant) [2] = target: T1, Gremlin-1 (recombinant); test: ELONA; apparent Kd; unit inferred, nM implied by agreement with SPR; GREM1 coated, 200 nM aptamer; Aptamer refolded 85 C 5 min, 4 C 2 min, 37 C 10 min; ELONA: PBS, 3% BSA block, 1 h; pull-down: 10 mM PBS with Ca2+ and Mg2+, room temperature; SPR at 25 C (buffer not in material); cell binding: serum-free medium, 37 C, 30 min; details: protein: commercial; chain copies: 2; label: biotin (ELONA, pull-down); none stated for SPR; hairpin; predicted stem of 11 bp, 2 internal loops, 1 terminal loop

B1: ex.50.T (structured_RNA)
RNA: UGUGGCAGUUAAGAAUAGAUCUUCGCUGCGAUU
modifications: lowercase u/c in printed sequence probably 2'-F pyrimidines (not stated in material)
Kd (Gremlin-1 (recombinant) [1]): 46.7 nM | Kd (Gremlin-1 (recombinant) [2]): 37.7 nM
